Read-outs that look alike come from different tables or passages of the source.

For assay [1], the target named is T1, human IL-11 (human, UniProt P20809 22-199).
T1 construct: Invigate recombinant protein; biotinylated when immobilized in the Di-complex ELISA; also called hIL11; hIL-11
T1 sequence: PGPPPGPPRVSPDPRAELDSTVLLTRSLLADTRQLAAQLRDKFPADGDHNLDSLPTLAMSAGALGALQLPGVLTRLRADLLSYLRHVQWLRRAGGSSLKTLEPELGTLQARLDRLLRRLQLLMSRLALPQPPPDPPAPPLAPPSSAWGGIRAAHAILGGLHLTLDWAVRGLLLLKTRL
Description: Tri-complex ELISA, hIL-11 + mIL-11Ra-Fc + hgp130-Fc, inhibition of complex formation. The method, then: In the Tri-complex ELISA format IL-11 antibodies are tested for their ability to inhibit the formation of a complex consisting of murine or human gp130-Fc fusion protein, with murine or human IL-11, and a murine IL11RA-Fc fusion protein. The assay format was adapted according to FIG. 18 (a, b), depending on whether murine or human IL-11 IgG antibodies were tested.
(§1) IgG converted antibodies were subjected to the experimental assay procedure described in Example 19 and IC50 [M], respectively efficacy (%) were calculated accordingly.
In general terms: An ELISA detects its analyte on a solid surface through an enzyme-linked reagent.

The next assay deals with T2, rat IL-11 (rat, UniProt Q99MF5 22-199).
T2 sequence: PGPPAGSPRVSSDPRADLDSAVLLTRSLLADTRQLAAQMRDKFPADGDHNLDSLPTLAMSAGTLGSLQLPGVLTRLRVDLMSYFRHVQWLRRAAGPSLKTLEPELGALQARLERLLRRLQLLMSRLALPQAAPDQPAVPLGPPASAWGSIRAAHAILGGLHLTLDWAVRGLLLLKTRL
Description: cell-based or functional assay.

The target in assay [2] is T3, murine IL-11 (mouse, UniProt P47873 22-199).
T3 sequence: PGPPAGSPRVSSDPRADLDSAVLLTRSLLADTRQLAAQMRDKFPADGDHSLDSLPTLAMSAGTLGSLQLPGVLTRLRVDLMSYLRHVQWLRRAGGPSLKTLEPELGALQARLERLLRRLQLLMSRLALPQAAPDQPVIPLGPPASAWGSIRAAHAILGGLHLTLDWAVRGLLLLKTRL
Description: cell-based or functional assay.

Assay [3] concerns the target T1, human IL-11. The experiment in a line: cell-based or functional assay.
A further assay addresses T4, cynomolgus IL-11 (cynomolgus, UniProt P20808 22-199).
T4 sequence: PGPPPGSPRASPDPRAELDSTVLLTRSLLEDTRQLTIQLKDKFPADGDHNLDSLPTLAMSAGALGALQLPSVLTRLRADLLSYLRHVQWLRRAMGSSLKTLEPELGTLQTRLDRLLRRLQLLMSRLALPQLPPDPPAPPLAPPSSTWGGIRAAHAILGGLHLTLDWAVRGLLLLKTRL
The experiment in a line: cell-based or functional assay.

The target in assay [4] is T3, murine IL-11. Description: cell-based or functional assay. The source holds these as a separate data set.
For assay [5], the target named is T1, human IL-11. Description: cell-based or functional assay. This is another data set of the same source.
Assay [6] concerns the target T3, murine IL-11. Description: Tri-complex ELISA, mIL-11 + mIL-11Ra-Fc + mgp130-Fc, inhibition of complex formation. The method, then:
In a first step, 25 μl of goat anti human IgG (Sigma, #12136), diluted 1:1000 in coating buffer (Candor, #121125) was coated on the plate at 4° C. overnight. Next day, the plate was washed one time with 50 μl PBST and then blocked with 50 μl SmartBlock (Candor, #113125) for one hour at room temperature (RT). […] After three additional washes of the coated and blocked microtiter plate with PBS-T, 25 μl of each mixture were added and the assay plate was incubated for one hour at room temperature. After three additional washes, anti-mouse-gp130 biotinylated antibody (R&D, #BAF468) or anti-human gp130 biotinylated antibody (R&D, #BAF228), both 1:1000 in 10% SmartBlock PBS-T, was added and incubated for 1 hour at RT. After three additional washes, a Streptavidin-Peroxidase conjugate (Sigma, #S5512) 1:1000 in SmartBlock PBS-T was added and incubated for one hour at room temperature. After a final three washes, AmplexRed (Fisher Scientific, A12222), 1/1000 in PBS, 0,003% H₂O₂, was added as substrate and incubated for 15 min at RT in the dark. Then, the fluorescence was measured with a plate reader at 535/595 nm. Signals from dose responses were used to calculate IC50 values using GraphPad Prism software. Efficacy was calculated as [(signal measured at lowest antibody concentration−signal measured at the highest antibody concentration)×100] divided by (signal measured at lowest antibody concentration−signal measured in the absence of antibody at an IL11 concentration of 8.2E-11 [M]).
as §1

Assay [7] has as its target T5, human IL-11 (human, UniProt P20809 22-199).
T5 sequence: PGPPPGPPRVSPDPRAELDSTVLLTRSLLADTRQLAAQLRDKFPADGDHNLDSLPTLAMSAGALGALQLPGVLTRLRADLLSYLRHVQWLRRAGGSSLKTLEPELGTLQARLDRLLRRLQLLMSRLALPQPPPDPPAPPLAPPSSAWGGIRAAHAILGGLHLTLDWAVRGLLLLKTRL
The experiment in a line: cell-based or functional assay. The source holds these as a separate data set.

Assay [8] concerns the target T6, murine IL-11 (mouse, UniProt P47873 22-199).
T6 sequence: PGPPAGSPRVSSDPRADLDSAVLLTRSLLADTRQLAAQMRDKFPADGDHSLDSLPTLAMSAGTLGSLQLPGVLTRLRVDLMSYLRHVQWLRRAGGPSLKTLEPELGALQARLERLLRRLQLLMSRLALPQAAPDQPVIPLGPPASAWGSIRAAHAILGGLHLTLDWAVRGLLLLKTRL
Description: cell-based or functional assay. This is another data set of the same source.

Assay [9] deals with T5, human IL-11. The experiment in a line: cell-based or functional assay. The source holds these as a separate data set.
For assay [10], the target named is T6, murine IL-11. Description: cell-based or functional assay. The source holds these as a separate data set.

B1: TPP-23552 (antibody, human IgG1, kappa)
heavy: not shown
light: DIVLTQSPASLALSPGERATLSCRASKSVSTSGYSYIHWYQQKPGQPPRLLIYLASNLDSGVPARFSGSGSGTDFTLNIHPLEEEDFATYYCQHSRDLPPTFGQGTKLEIKRTVAAPSVFIFPPSDEQLKSGTASVVCLLNNFYPREAKVQWKVDNALQSGNSQESVTEQDSKDSTYSLSSTLTLSKADYEKHKVYACEVTHQGLSSPVTKSFNRGEC
notes: hIgG1, Kappa; also called BSN 3C6 (WO2019238882)
A word on the IC50: it is the concentration at which inhibition is half-maximal. Take B1: the figures for the “Efficacy (%)” value with human IL-11 [1] and with murine IL-11 [6] were 90.6% and 90.7%, respectively. The IC50 with human IL-11 [1] came to 6.8 nM; in the assay with murine IL-11 [6], 23 nM. Besides, the “Efficacy (%), Stat3 reporter gene assay” value with rat IL-11 was 81.3%; in the assay with murine IL-11 [2] it was 90.9%; in the assay with human IL-11 [3], 76.7%; with cynomolgus IL-11 it was 52.4%; in the assay with murine IL-11 [4], 76%; with human IL-11 [5], 87.9%. Besides, the “IC50, Stat3 reporter gene assay” value was determined as 8.8 nM in the assay with rat IL-11; 8.1 nM with murine IL-11 [2]; 3.7 nM with human IL-11 [3]; 22 nM in the assay with murine IL-11 [4]; 18 nM in the assay with human IL-11 [5].

B2: TPP-31286 (antibody, IgG4, V domains shown)
VH: QVQLLESGGGLVQPGGSLRLSCAASGFTFSHYDMNWLRQAPGKGLEWVGVISYDGSNKFYADFVKGRFTISRDNSKNTLYLQMNSLRAEDTAVYYCARTPGSHFDYWGQGTLVTVSS
VL: QSVLTQPPSASGTPGQRVTISCSGSSSNIGNNAVNWYQQLPGTAPKLLIYYDDLLPSGVPDRFSGSKSGTSASLAISGLRSEDEADYYCSAWDDSLNGVVFGGGTKLTVL
For B2, the “RGA potency (mean)” value with human IL-11 [7] and with murine IL-11 [8] was less than 170 nM in each case. For the same molecule, the “IC50, RGA 1” value with human IL-11 [9] came to 59 nM; with murine IL-11 [10], 18 nM. The “IC50, RGA 2” value in the assay with human IL-11 [9] amounted to 37 nM; with murine IL-11 [10] it was 13 nM.

B3: TPP-31288 (antibody, IgG4, V domains shown)
VH: EVQLLESGGGVVQPGGSLRLSCAASGFTFSHYDMNWLRQAPGKGLEWVGVISYDGSNKFYADFVKGRFTISRDNSKNTLYLQMNSLRAEDTAVYYCARTPGSHFDYWGQGTLVTVSS
VL: QSVLTQPPSASGTPGQRVTISCSGSSSNIGNNAVNWYQQLPGTAPKLLIYYDDLLPSGVPDRFSGSKSGTSASLAISGLRSEDEADYYCSAWDDSLNGVVFGGGTKLTVL
As to B3, the “RGA potency (mean)” value in the assay with human IL-11 [7] and with murine IL-11 [8] was less than 170 nM in each case. Moreover, the “IC50, RGA 1” value with human IL-11 [9] came out at 67 nM; with murine IL-11 [10] it was 47 nM. For the same molecule, the results for the “IC50, RGA 2” value with human IL-11 [9] and with murine IL-11 [10] were 141 nM and 23 nM, respectively.

B4: TPP-31289 (antibody, IgG4, V domains shown)
VH: EVQLLESGGGLVQPGRSLRLSCAASGFTFSHYDMNWLRQAPGKGLEWVGVISYDGSNKFYADFVKGRFTISRDNSKNTLYLQMNSLRAEDTAVYYCARTPGSHFDYWGQGTLVTVSS
VL: QSVLTQPPSASGTPGQRVTISCSGSSSNIGNNAVNWYQQLPGTAPKLLIYYDDLLPSGVPDRFSGSKSGTSASLAISGLRSEDEADYYCSAWDDSLNGVVFGGGTKLTVL
For B4, the “RGA potency (mean)” value with human IL-11 [7] and in the assay with murine IL-11 [8] was less than 170 nM throughout. For the same molecule, the entries for the “IC50, RGA 1” value with human IL-11 [9] and in the assay with murine IL-11 [10] were 61 nM and 27 nM, respectively. Also, the figures for the “IC50, RGA 2” value in the assay with human IL-11 [9] and with murine IL-11 [10] were 76 nM and 23 nM, respectively.

B5: TPP-31287 (antibody, IgG4, V domains shown)
VH: EVQLVESGGGLVQPGGSLRLSCAASGFTFSHYDMNWLRQAPGKGLEWVGVISYDGSNKFYADFVKGRFTISRDNSKNTLYLQMNSLRAEDTAVYYCARTPGSHFDYWGQGTLVTVSS
VL: QSVLTQPPSASGTPGQRVTISCSGSSSNIGNNAVNWYQQLPGTAPKLLIYYDDLLPSGVPDRFSGSKSGTSASLAISGLRSEDEADYYCSAWDDSLNGVVFGGGTKLTVL
On to B5, for which the “RGA potency (mean)” value in the assay with human IL-11 [7] and with murine IL-11 [8] was less than 170 nM in each case. Further, the “IC50, RGA 1” value in the assay with human IL-11 [9] was found to be 127 nM; with murine IL-11 [10], 41 nM. The entries for the “IC50, RGA 2” value with human IL-11 [9] and with murine IL-11 [10] were 56 nM and 15 nM, respectively.
